This note sets out measurements from publication PMC3784611 (Biochemistry, 2013).

In data set [1] the target is unmyristoylated recoverin (bovine) (UniProt P21457). Kind of data set: NMR pulsed-field gradient diffusion.
Data set [2] has the same target. Kind of data set: 15N NMR relaxation.
The data set “CW-EPR line shape” deals with the molecule itself. Briefly: CW-EPR line shape.

“unmyristoylated recoverin (from UniProt P21457 1-202) (natural protein)”: the stoichiometry N in data set [1] and in data set [2] was 2 throughout.

B1: myristoylated recoverin spin-labeled only at Cys39 (natural protein, bovine)
chain: GNSKSGALSKEILEELQLNTKFTEEELSSWYQSFLKECPSGRITRQEFQTIYSKFFPEADPKAYAQHVFRSFDANSDGTLDFKEYVIALHMTSAGKTNQKLEWAFSLYDVDGNGTISKNEVLEIVTAIFKMISPEDTKHLPEDENTPEKRAEKIWGFFGKKDDDKLTEKEFIEGTLANKEILRLIQFEPQKVKEKLKEKKL
modifications: N-terminal myristoyl group; nitroxide spin label at the native cysteine C39
With B1, in the data set “CW-EPR line shape”, the “stoichiometry N” value amounted to 2.

One may read the stoichiometry N as a count of units in the complex or per binding partner.
